Assay results as given in US20240343803A1 (SHANDONG SIMCERE BIOPHARMACEUTICAL, published 2024).
Changes are numbered by the printed parent chain. Several values for one entry are separate records, joined by “and”; a condition that tells them apart may be missing. Equal values may be shown once. Read-outs that look alike come from different tables or passages of the source.

T1: human PVRIG-his (AcroBiosystems, Cat NO. PVG-H52H4) (human, UniProt Q6DKI7 41-171, limits assumed)
T1 construct: treated as the same protein; also called human PVRIG-His protein; Human PVRIG-His, Acro C227P1-9ARF1-T4
T1 sequence (looked up): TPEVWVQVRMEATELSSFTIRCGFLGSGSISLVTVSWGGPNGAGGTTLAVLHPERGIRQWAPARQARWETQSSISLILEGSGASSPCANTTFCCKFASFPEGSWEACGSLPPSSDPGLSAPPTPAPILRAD

T2: human PVRIG on FlpinCHO-PVRIG cells (human, UniProt Q6DKI7 41-326)
T2 construct: whole, on cells; also called FlpinCHO-hPVRIG; FlpinCHO-human PVRIG
T2 sequence (looked up): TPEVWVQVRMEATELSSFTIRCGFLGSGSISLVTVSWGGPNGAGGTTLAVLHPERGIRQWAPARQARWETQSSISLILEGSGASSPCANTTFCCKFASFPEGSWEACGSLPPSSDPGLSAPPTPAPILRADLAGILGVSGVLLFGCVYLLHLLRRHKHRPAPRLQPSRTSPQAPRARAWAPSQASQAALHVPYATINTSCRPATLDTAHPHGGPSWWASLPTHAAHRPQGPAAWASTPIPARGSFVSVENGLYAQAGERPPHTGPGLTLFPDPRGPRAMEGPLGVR

T3: human PVRIG-mFc protein (Acro, PVG-H5253) (human, UniProt Q6DKI7 41-171, limits assumed)
T3 construct: bought reagent; also called PVRIG-ECD-mFc
T3 sequence (looked up): T1 sequence (looked up)

T4: cynomolgus monkey PVRIG (Novoprotein, Cat NO. C09B) (cynomolgus monkey, UniProt A0A2K5WVV8 41-171)
T4 construct: bought reagent; also called cynomolgus monkey PVRIG recombinant protein
T4 sequence: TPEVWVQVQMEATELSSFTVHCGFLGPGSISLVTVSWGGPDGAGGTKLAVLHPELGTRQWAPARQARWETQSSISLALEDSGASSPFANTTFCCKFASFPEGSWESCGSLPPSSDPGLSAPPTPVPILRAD

B1: PVRIG-A50 (VHH)
VHH: EVQLVESGGGLVQPGGSLRLSCAASGFTFSYYDMSWVRQAPGKGLEWVSTINSNGGRTSYVDSVKGRFTISRDNTKNTLYLQMNSLKPEDTAVYYCVEGDPHNFGLENLSLRDFGSWGQGTQVTVSS
notes: tested as VHH-hinge-CH2-CH3 (human IgG1-Fc); not shown: human IgG1 hinge-CH2-CH3
B2: PVRIG-A50-H1b (VHH)
VHH: B1 VHH with N54D, T75S, K87R, P88A, N108S, Q122M
notes: humanized VHH; also called A50.VH1b
B3: PVRIG-A118 (VHH)
VHH: QVQLVESGGGLVQAGGSLRLSCAASETYFDLYVMGWYRQAPGKDRELVATITYTGSIKIVDSVKDRFTISRGDAKNTVSLQMSSLKPEDTAVYFCNADPSGLGRKVYWGQGTQVTVSS
notes: as for B1
B4: COM701-hIgG4 (antibody, V domains shown)
VH: QVQLVQSGAEVKKPGASVKVSCKASGYTFTDYNINWVRQAPGQGLEWMGYIYPYIGGSGYAQKFQGRVTMTRDTSTSTVYMELSSLRSEDTAVYYCAREDKTARNAMDYWGQGTLVTVSS
VL: DIQMTQSPSSLSASVGDRVTITCRVSENIYSNLAWYQQKPGKAPKLLIYEATNLAEGVPSRFSGSGSGTDFTLTISSLQPEDFATYYCQHFWGTPYTFGQGTKLEIK
notes: anti-PVRIG positive control

What was measured:
[1] = molecular target: T1, human PVRIG-his (AcroBiosystems, Cat …); assay: competition ELISA on coated human PVRIG-his; blocked ligand human PVRL2-mFc
Description: The ELISA plate was pre-coated with 100 μL/well of 0.5 μg/mL human PVRIG-his protein (AcroBiosystems, Cat NO. PVG-H52H4). The tested anti-PVRIG antibodies were diluted from the highest concentration of 16 nM (two-fold concentration). The diluted antibodies were mixed with 18 ng/ml human PVRL2-mFc (AcroBiosystems, Cat NO. CD2-H5257) in equal volume, added into the plate (100 μL/well), and incubated with shaking at room temperature for 2.0 hours. […] A HRP substrate, TMB (Thermo, Cat NO. 34029) was added into wells after washing the plate again for color development. After adding a termination solution to terminate the reaction, the absorbance value was read by a microplate reader (MD i3×). An inhibiting curve was drawn with concentration of antibodies as the abscissa and the corresponding OD value as the ordinate. The IC50 value was calculated by using a Four Parameter Logistic Fit (GraphPadPrism9). The smaller the IC50 value, the stronger the ability of the antibodies inhibits the binding between PVRIG and PVRL2. The positive and negative controls are the same as in Example 8.
The methods refer to Example 11. The inhibiting activity of the humanized antibodies was normalized to the corresponding parental antibodies. If the percentage value is higher than 100%, the inhibiting effect of humanized antibodies is better than that of parental antibodies.

[2] = molecular target: T1, human PVRIG-his (AcroBiosystems, Cat …); assay: as above; remark: listed apart in the source
Method in brief: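 Wells were coated with 0.5 μg/mL human PVRIG-his. Bound ligand was read by HRP/TMB absorbance, and IC50 came from a four-parameter logistic fit of OD against antibody concentration.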

[3] = molecular target: T2, human PVRIG on FlpinCHO-PVRIG cells; assay: FACS, FlpinCHO-PVRIG cells
Description: After discarding the cell culture medium, the cells were rinsed with PBS and digested for 8-10 minutes by adding 1 mL Versene (Gibico, 15040-066). The Ham's F12 (Gibico, 21127-022) complete medium containing 10% FBS was then added to terminate the digestion and acquire cell suspension. After counting with a cell counter (Beckman Coulter, Vi-CELL), an appropriate amount of cell suspension was centrifuged at 350×g to remove the supernatant, washed twice with PBS, stained with Zombie violet (Biolegend, 423114) and incubated at room temperature for 20 minutes. After incubation, the cells were added with staining buffer (2% FBS+PBS) to stop staining, centrifuged at 350×g to remove the supernatant, washed twice and resuspended with staining buffer to a density of 2×10⁶ cells/mL. The cells were plated into a 96-well plate (50 μL of cell suspension per well) for further use. The antibodies were diluted from the highest concentration of 46 nM (two-fold concentration) with staining buffer by 3.3-fold serial dilution. The diluted antibodies were added to the well containing 50 μL of cell suspension. The plate was placed on a microplate shaker at 400 rpm for 1 minute to fully mix the antibodies and cells, and then incubated at 4° C. for 30 minutes. After the incubation, the cells were washed twice with staining buffer (200 μL per well) and centrifuged at 350×g for 5 minutes to discard the supernatant. The PE goat anti-human IgG Fc antibody (ebioscience, 12-4998-82) was diluted 250 times with staining buffer, added into the washed wells (100 μL per well), mixed well, and stained at 4° C. for 30 minutes. After staining, the cells were washed twice with staining buffer, finally resuspended with 200 μL staining buffer and analyzed by flow cytometry (BD, Canto II). The stronger the signal, the stronger the ability of the antibodies binds to PVRIG. An antibody binding curve was drawn with concentration of antibodies as the abscissa and the corresponding Mean Fluorescence Intensity (MFI) as the ordinate. The AUC value of the curve was calculated by using a Four Parameter Logistic Fit (GraphPadPrism9).

[4] = molecular target: T3, human PVRIG-mFc protein (Acro, …); assay: competition FACS; blocked: human PVRIG-mFc binding to CHO-K1-CD112 cells
Method in brief: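 Antibody dilutions premixed with human PVRIG-mFc (working solution 1 μg/mL, four-fold concentration) for 30 min at 4° C, then incubated with CHO-K1-CD112 cells 30 min at 4° C. Bound PVRIG-mFc detected by PE anti-mouse IgG Fc flow cytometry; IC50 and AUC from four-parameter fit of MFI versus antibody concentration.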

[5] = molecular target: T3, human PVRIG-mFc protein (Acro, …); assay: competition FACS; blocked: PVRIG-mFc binding to CHO-K1 CD112 cells
Description: The Ham's F12 (Gibico, 21127-022) complete medium containing 10% FBS was then added to stop the digestion and acquire cell suspension. After counting with a cell counter (Beckman Coulter, Vi-CELL), an appropriate amount of cell suspension was centrifuged at 350×g to remove the supernatant, washed twice with PBS, stained with Zombie violet (Biolegend, 423114) and incubated at room temperature for 20 minutes. After incubation, the cells were added with staining buffer (2% FBS+PBS) to stop staining, centrifuged at 350×g to remove the supernatant, washed twice and resuspended with staining buffer to a density of 2×10⁶ cells/mL. The cells were plated into a 96-well plate (50 μL of cell suspension per well) for further use. A working solution of human PVRIG-mFc protein (Acro, PVG-H5253) prepared with staining buffer, 1 μg/mL (four-fold concentration), was added into a 96-well plate (50 μL PVRIG-mFc working solution per well). […] The diluted antibodies were added to the well containing 50 μL of PVRIG-mFc. The plate was placed on a microplate shaker at 400 rpm for 1 minute to fully mix the antibodies and PVRIG-mFc proteins, and then incubated at 4° C. for 30 minutes. After the incubation, the cell suspension prepared above (100 μL) was added into the wells, gently mixed with the pipette tip and incubated at 4° C. for 30 minutes. After the incubation, the cells were washed twice with staining buffer (200 μL per well) and centrifuged at 350×g for 5 minutes to discard the supernatant. The PE goat anti-mouse IgG Fc antibody (Biolegend, 405337) was diluted 250 times with staining buffer, added into the washed wells (100 μL per well), mixed well, and stained at 4° C. for 30 minutes. After staining, the cells were washed twice with staining buffer, finally resuspended with 200 μL staining buffer and analyzed by flow cytometry (BD, Canto II). The weaker the fluorescence signal, the stronger the ability of the antibodies blocks the binding of CHO-K1 human CD112 cells to the PVRIG-mFc protein.

[6] = molecular target: T4, cynomolgus monkey PVRIG (Novoprotein, …); assay: ELISA, coated cynomolgus monkey PVRIG
[7] = molecular target: T3, human PVRIG-mFc protein (Acro, …); assay: competition FACS; blocked: human PVRIG-mFc binding to CHO-K1-CD112 cells; remark: listed apart in the source
Method in brief: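 CHO-K1-CD112 cells stained with Zombie violet were added to the mixture for another 30 min at 4° C, and bound PVRIG-mFc was detected with PE goat anti-mouse IgG Fc (1:250) as mean fluorescence intensity on a BD Canto II. IC50 values were read off the resulting competition curve.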

[8] = molecular target: T1, human PVRIG-his (AcroBiosystems, Cat …); assay: ELISA, coated human PVRIG-his

Binder	IC50 (read off the curve) [1]	IC50 (read off the curve) [2] [nM]	EC50 (read off the curve) [3] [nM]	IC50 (read off the curve) [4] [nM]	IC50 (read off the curve) [5] [nM]	EC50 (read off the curve) [6] [nM]	IC50 (read off the curve) [7] [nM]	EC50 (read off the curve) [8] [nM]
B1	~0.8 nM and ~1 nM	~2	~0.7	~0.7				
B2					~1			
B3	~0.6 nM	~0.6	~0.2	~1				
B4		~0.8		~0.8	~0.7	~0.1	~0.9	~0.3
